Molecular target: human CD3, on primary human T cells (human) (UniProt P07766)
Test: cell-based or functional assay

human CD3, on primary human T cells (human), sequence (P07766 23-207 limits assumed): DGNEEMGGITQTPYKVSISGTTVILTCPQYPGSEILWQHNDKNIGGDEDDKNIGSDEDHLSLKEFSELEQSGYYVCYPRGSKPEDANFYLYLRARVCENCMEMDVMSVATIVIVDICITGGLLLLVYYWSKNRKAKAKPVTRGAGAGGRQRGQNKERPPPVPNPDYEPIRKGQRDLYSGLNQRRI

PGT-121.60 (antibody)
3%: PD-1 Δ Emax; CD4 T cells; donor D2256; uninfected CEM cells
-2%: Ki-67 Δ Emax; CD4 T cells; donor D2256; THRO-infected CEM cells | PD-1 Δ Emax; CD4 T cells; donor D2256; 7552-infected CEM cells | PD-1 Δ Emax; CD4 T cells; donor D4279; THRO-infected CEM cells
0%: Ki-67 Δ Emax; CD4 T cells; donor D2256; 7552-infected CEM cells | Ki-67 Δ Emax; CD4 T cells; donor D2256; uninfected CEM cells | Ki-67 Δ Emax; CD4 T cells; donor D4246; 7552-infected CEM cells | Ki-67 Δ Emax; CD4 T cells; donor D4246; THRO-infected CEM cells | Ki-67 Δ Emax; CD4 T cells; donor D4246; uninfected CEM cells | Ki-67 Δ Emax; CD8 T cells; donor D1597; 7552-infected CEM cells | Ki-67 Δ Emax; CD8 T cells; donor D1597; THRO-infected CEM cells | Ki-67 Δ Emax; CD8 T cells; donor D1597; uninfected CEM cells | Ki-67 Δ Emax; CD8 T cells; donor D2256; 7552-infected CEM cells | Ki-67 Δ Emax; CD8 T cells; donor D2256; THRO-infected CEM cells | Ki-67 Δ Emax; CD8 T cells; donor D2256; uninfected CEM cells | Ki-67 Δ Emax; CD8 T cells; donor D4246; 7552-infected CEM cells | Ki-67 Δ Emax; CD8 T cells; donor D4246; THRO-infected CEM cells | Ki-67 Δ Emax; CD8 T cells; donor D4246; uninfected CEM cells | Ki-67 Δ Emax; CD8 T cells; donor D4279; 7552-infected CEM cells | Ki-67 Δ Emax; CD8 T cells; donor D4279; THRO-infected CEM cells | Ki-67 Δ Emax; CD8 T cells; donor D4279; uninfected CEM cells | PD-1 Δ Emax; CD4 T cells; donor D1597; 7552-infected CEM cells | PD-1 Δ Emax; CD4 T cells; donor D1597; uninfected CEM cells | PD-1 Δ Emax; CD4 T cells; donor D4246; THRO-infected CEM cells | PD-1 Δ Emax; CD4 T cells; donor D4246; uninfected CEM cells | PD-1 Δ Emax; CD8 T cells; donor D1597; 7552-infected CEM cells | PD-1 Δ Emax; CD8 T cells; donor D1597; THRO-infected CEM cells | PD-1 Δ Emax; CD8 T cells; donor D1597; uninfected CEM cells | PD-1 Δ Emax; CD8 T cells; donor D2256; 7552-infected CEM cells | PD-1 Δ Emax; CD8 T cells; donor D2256; uninfected CEM cells | PD-1 Δ Emax; CD8 T cells; donor D4246; 7552-infected CEM cells | PD-1 Δ Emax; CD8 T cells; donor D4246; THRO-infected CEM cells | PD-1 Δ Emax; CD8 T cells; donor D4279; 7552-infected CEM cells | PD-1 Δ Emax; CD8 T cells; donor D4279; THRO-infected CEM cells | PD-1 Δ Emax; CD8 T cells; donor D4279; uninfected CEM cells
> 100 µg/mL: Ki-67 EC50; CD4 T cells; donor D1597; 7552-infected CEM cells | Ki-67 EC50; CD4 T cells; donor D1597; THRO-infected CEM cells | Ki-67 EC50; CD4 T cells; donor D1597; uninfected CEM cells | Ki-67 EC50; CD4 T cells; donor D2256; 7552-infected CEM cells | Ki-67 EC50; CD4 T cells; donor D2256; THRO-infected CEM cells | Ki-67 EC50; CD4 T cells; donor D2256; uninfected CEM cells | Ki-67 EC50; CD4 T cells; donor D4246; 7552-infected CEM cells | Ki-67 EC50; CD4 T cells; donor D4246; THRO-infected CEM cells | Ki-67 EC50; CD4 T cells; donor D4246; uninfected CEM cells | Ki-67 EC50; CD4 T cells; donor D4279; 7552-infected CEM cells | Ki-67 EC50; CD4 T cells; donor D4279; THRO-infected CEM cells | Ki-67 EC50; CD4 T cells; donor D4279; uninfected CEM cells | Ki-67 EC50; CD8 T cells; donor D1597; 7552-infected CEM cells | Ki-67 EC50; CD8 T cells; donor D1597; THRO-infected CEM cells | Ki-67 EC50; CD8 T cells; donor D1597; uninfected CEM cells | Ki-67 EC50; CD8 T cells; donor D2256; 7552-infected CEM cells | Ki-67 EC50; CD8 T cells; donor D2256; THRO-infected CEM cells | Ki-67 EC50; CD8 T cells; donor D2256; uninfected CEM cells | Ki-67 EC50; CD8 T cells; donor D4246; 7552-infected CEM cells | Ki-67 EC50; CD8 T cells; donor D4246; THRO-infected CEM cells | Ki-67 EC50; CD8 T cells; donor D4246; uninfected CEM cells | Ki-67 EC50; CD8 T cells; donor D4279; 7552-infected CEM cells | Ki-67 EC50; CD8 T cells; donor D4279; THRO-infected CEM cells | Ki-67 EC50; CD8 T cells; donor D4279; uninfected CEM cells | PD-1 EC50; CD4 T cells; donor D1597; 7552-infected CEM cells | PD-1 EC50; CD4 T cells; donor D1597; THRO-infected CEM cells | PD-1 EC50; CD4 T cells; donor D1597; uninfected CEM cells | PD-1 EC50; CD4 T cells; donor D2256; 7552-infected CEM cells | PD-1 EC50; CD4 T cells; donor D2256; THRO-infected CEM cells | PD-1 EC50; CD4 T cells; donor D2256; uninfected CEM cells | PD-1 EC50; CD4 T cells; donor D4246; 7552-infected CEM cells | PD-1 EC50; CD4 T cells; donor D4246; THRO-infected CEM cells | PD-1 EC50; CD4 T cells; donor D4246; uninfected CEM cells | PD-1 EC50; CD4 T cells; donor D4279; 7552-infected CEM cells | PD-1 EC50; CD4 T cells; donor D4279; THRO-infected CEM cells | PD-1 EC50; CD4 T cells; donor D4279; uninfected CEM cells | PD-1 EC50; CD8 T cells; donor D1597; 7552-infected CEM cells | PD-1 EC50; CD8 T cells; donor D1597; THRO-infected CEM cells | PD-1 EC50; CD8 T cells; donor D1597; uninfected CEM cells | PD-1 EC50; CD8 T cells; donor D2256; 7552-infected CEM cells | PD-1 EC50; CD8 T cells; donor D2256; THRO-infected CEM cells | PD-1 EC50; CD8 T cells; donor D2256; uninfected CEM cells | PD-1 EC50; CD8 T cells; donor D4246; 7552-infected CEM cells | PD-1 EC50; CD8 T cells; donor D4246; THRO-infected CEM cells | PD-1 EC50; CD8 T cells; donor D4246; uninfected CEM cells | PD-1 EC50; CD8 T cells; donor D4279; 7552-infected CEM cells | PD-1 EC50; CD8 T cells; donor D4279; THRO-infected CEM cells | PD-1 EC50; CD8 T cells; donor D4279; uninfected CEM cells
1%: Ki-67 Δ Emax; CD4 T cells; donor D1597; 7552-infected CEM cells | Ki-67 Δ Emax; CD4 T cells; donor D1597; uninfected CEM cells | Ki-67 Δ Emax; CD4 T cells; donor D4279; THRO-infected CEM cells | Ki-67 Δ Emax; CD4 T cells; donor D4279; uninfected CEM cells | PD-1 Δ Emax; CD4 T cells; donor D1597; THRO-infected CEM cells | PD-1 Δ Emax; CD4 T cells; donor D2256; THRO-infected CEM cells | PD-1 Δ Emax; CD4 T cells; donor D4279; 7552-infected CEM cells
-1%: Ki-67 Δ Emax; CD4 T cells; donor D1597; THRO-infected CEM cells | Ki-67 Δ Emax; CD4 T cells; donor D4279; 7552-infected CEM cells | PD-1 Δ Emax; CD4 T cells; donor D4279; uninfected CEM cells | PD-1 Δ Emax; CD8 T cells; donor D2256; THRO-infected CEM cells | PD-1 Δ Emax; CD8 T cells; donor D4246; uninfected CEM cells
2%: PD-1 Δ Emax; CD4 T cells; donor D4246; 7552-infected CEM cells
